Test results published in article PMC7605111.
Several values for one entry are separate records, joined by “and”; a condition that tells them apart may be missing. Equal entries are not always repeated.

Key:
[1] = molecular target: class II fructose-1,6-bisphosphatase from Francisella tularensis (Francisella tularensis); test: crystal structure
[2] = molecular target: class II fructose-1,6-bisphosphatase from Francisella tularensis (Francisella tularensis); test: SEC

class II fructose-1,6-bisphosphatase from Francisella tularensis (enzyme)
stoichiometry N [1]: 4 | stoichiometry N [2]: 2 and 4
